{"source": "patent US5908761", "about": "“Galectin-8 and galectin-8-like proteins and DNA molecules coding therefor” (Yeda Research and Development Co. Ltd., dated 1999)", "proteins": {"B1": {"name": "tag-free recombinant galectin-8 (other)", "chain": "MLSLSNLQNIIYNPTIPYVSTITEQLKPGSLIVIRGHVPKDSERFQVDFQHGNSLKPRADVAFHFNPRFKRSNCIVCNTLTNEKWGWEEITHDMPFRKEKSFEIVIMVLKNKFHVAVNGKHILLYAHRINPEKIDTLGIFGKVNIHSIGFRFSSDLQSMETSTLGLTQISKENIQKSGKLHLSLPFEARLNASMGPGRTVVVKGEVNTNATSFNVDLVAGRSRDIALHLNPRLNVKAFVRNSFLQDAWGEEERNITCFPFSSGMYFEMIIYCDVREFKVAVNGVHSLEYKHRFKDLSSIDTLAVDGDIRLLDVRSW"}}, "target": "the molecule itself", "assay": "gel filtration over Superdex-200 HR FPLC column (self-association)", "protocol": "Approximately 100 μg protein was loaded onto Superdex-200 HR (Pharmacia) FPLC column equilibrated with buffer A (PBS, 4 mM β-mercaptoethanol, 2 mM EDTA), and run for 60 min at 0.5 ml/min. O.D. was measured at 215 nm, and the column profile was obtained by running separately standard marks.\nThe primary structure of galectin-8 resembles that of galectin-4, namely, two homologous (38% identity) carbohydrate-binding regions (CRDs) linked by a short ≈30-amino acids linking peptide. This unique architecture is shared so far only by two galectins: rat galectin-4 (12) and its *C. elegans* homologue (13). Other galectin types, that contain a single CRD, exist and function as non-covalent dimers, which provides them with the potential to aggregate or agglutinate glycoconjugates. Since galectin-4 exists as a monomer, experiments were carried out to determine whether galectin-8 exists as a monomer or a dimer. […] Hepatic galectin-8 (FIG. 6) has a similar mobility on SDS-PAGE as its recombinant counterpart (FIG. 5)."}
{"protein": "B1", "values": [{"measurement": "binding result", "result": "no binding"}]}
